{"source": "IntAct's records for PubMed 16354671", "parents": {"B1": {"name": "Outer-membrane lipoprotein carrier protein (Escherichia coli (strain K12)), P61316 (parent)", "chain": "MKKIAITCALLSSLVASSVWADAASDLKSRLDKVSSFHASFTQKVTDGSGAAVQEGQGDLWVKRPNLFNWHMTQPDESILVSDGKTLWFYNPFVEQATATWLKDATGNTPFMLIARNQSSDWQQYNIKQNGDDFVLTPKASNGNLKQFTINVGRDGTIHQFSAVEQDDQRSSYQLKSQQNGAVDAAKFTFTPPQGVTVDDQRK", "partner": "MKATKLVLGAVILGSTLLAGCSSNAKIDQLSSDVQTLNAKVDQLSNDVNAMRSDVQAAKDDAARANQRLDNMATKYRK"}}, "data": [{"variants_of": "B1", "details": "with lpp_ecoli lpp", "values": [{"variant": "I114G", "effect of a mutation on the interaction": "increasing interaction"}]}]}
